Molecular target: TcdB1 holotoxin (recombinant full-length TcdB1, VPI10463 strain, expressed in Bacillus megaterium) (Clostridium difficile, VPI10463 strain) (UniProt P18177)
Experiment: cell-based or functional assay

With Fab fragment of bezlotoxumab as the substance, how does the cell rounding assay on HeLa cells, TcdB1 10 pM, 6 h: reduction of cell-rounding at 2 µM (% reduction of cell-rounding at 2 µM) read?
Its cell rounding assay on HeLa cells, TcdB1 10 pM, 6 h: reduction of cell-rounding at 2 µM (% reduction of cell-rounding at 2 µM) is 40.
